Test results reported in paper PMC6965647.

Molecular target: heat shock protein 90 (human (endogenous in brain tissue)) (UniProt P07900)
Assay: native gel or EMSA; human brain homogenates (AD and ND) on 4–10% native gradient gel at 4 °C, immunoblot

stoichiometry N: 2
Substance: heat shock protein 90 (from UniProt P07900 1-732) (natural protein)
